Results published in patent US20110091994A1, “Methods for Screening Compounds for Treating and/or Preventing an Hepatitis C Virus Infection” (priority 2008, published 2011).

B1: FBLN5 (protein, UniProt Q9UBX5 24-448, looked up)
Fibulin-5: QAQCTNGFDLDRQSGQCLDIDECRTIPEACRGDMMCVNQNGGYLCIPRTNPVYRGPYSNPYSTPYSGPYPAAAPPLSAPNYPTISRPLICRFGYQMDESNQCVDVDECATDSHQCNPTQICINTEGGYTCSCTDGYWLLEGQCLDIDECRYGYCQQLCANVPGSYSCTCNPGFTLNEDGRSCQDVNECATENPCVQTCVNTYGSFICRCDPGYELEEDGVHCSDMDECSFSEFLCQHECVNQPGTYFCSCPPGYILLDDNRSCQDINECEHRNHTCNLQQTCYNLQGGFKCIDPIRCEEPYLRISDNRCMCPAENPGCRDQPFTILYRDMDVVSGRSVPADIFQMQATTRYPGAYYIFQIKSGNEGREFYMRQTGPISATLVMTRPIKGPREIQLDLEMITVNTVINFRGSSVIRLRIYVSQYPF
B2: FBLN2 (protein, UniProt P98095 28-1184, looked up)
Fibulin-2: APRQDCTGVECPPLENCIEEALEPGACCATCVQQGCACEGYQYYDCLQGGFVRGRVPAGQSYFVDFGSTECSCPPGGGKISCQFMLCPELPPNCIEAVVVADSCPQCGQVGCVHAGHKYAAGHTVHLPPCRACHCPDAGGELICYQLPGCHGNFSDAEEGDPERHYEDPYSYDQEVAEVEAATALGGEVQAGAVQAGAGGPPAALGGGSQPLSTIQAPPWPAVLPRPTAAAALGPPAPVQAKARRVTEDSEEEEEEEEEREEMAVTEQLAAGGHRGLDGLPTTAPAGPSLPIQEERAEAGARAEAGARPEENLILDAQATSRSTGPEGVTHAPSLGKAALVPTQAVPGSPRDPVKPSPHNILSTSLPDAAWIPPTREVPRKPQVLPHSHVEEDTDPNSVHSIPRSSPEGSTKDLIETCCAAGQQWAIDNDECLEIPESGTEDNVCRTAQRHCCVSYLQEKSCMAGVLGAKEGETCGAEDNDSCGISLYKQCCDCCGLGLRVRAEGQSCESNPNLGYPCNHVMLSCCEGEEPLIVPEVRRPPEPAAAPRRVSEAEMAGREALSLGTEAELPNSLPGDDQDECLLLPGELCQHLCINTVGSYHCACFPGFSLQDDGRTCRPEGHPPQPEAPQEPALKSEFSQVASNTIPLPLPQPNTCKDNGPCKQVCSTVGGSAICSCFPGYAIMADGVSCEDINECVTDLHTCSRGEHCVNTLGSFHCYKALTCEPGYALKDGECEDVDECAMGTHTCQPGFLCQNTKGSFYCQARQRCMDGFLQDPEGNCVDINECTSLSEPCRPGFSCINTVGSYTCQRNPLICARGYHASDDGTKCVDVNECETGVHRCGEGQVCHNLPGSYRCDCKAGFQRDAFGRGCIDVNECWASPGRLCQHTCENTLGSYRCSCASGFLLAADGKRCEDVNECEAQRCSQECANIYGSYQCYCRQGYQLAEDGHTCTDIDECAQGAGILCTFRCLNVPGSYQCACPEQGYTMTANGRSCKDVDECALGTHNCSEAETCHNIQGSFRCLRFECPPNYVQVSKTKCERTTCHDFLECQNSPARITHYQLNFQTGLLVPAHIFRIGPAPAFTGDTIALNIIKGNEEGYFGTRRLNAYTGVVYLQRAVLEPRDFALDVEMKLWRQGSVTTFLAKMHIFFTTFAL
B3: FAM120B (protein, UniProt Q96EK7 1-910, looked up)
Constitutive coactivator of …: MGVRGLQGFVGSTCPHICTVVNFKELAEHHRSKYPGCTPTIVVDAMCCLRYWYTPESWICGGQWREYFSALRDFVKTFTAAGIKLIFFFDGMVEQDKRDEWVKRRLKNNREISRIFHYIKSHKEQPGRNMFFIPSGLAVFTRFALKTLGQETLCSLQEADYEVASYGLQHNCLGILGEDTDYLIYDTCPYFSISELCLESLDTVMLCREKLCESLGLCVADLPLLACLLGNDIIPEGMFESFRYKCLSSYTSVKENFDKKGNIILAVSDHISKVLYLYQGEKKLEEILPLGPNKALFYKGMASYLLPGQKSPWFFQKPKGVITLDKQVISTSSDAESREEVPMCSDAESRQEVPMCTGPESRREVPVYTDSEPRQEVPMCSDPEPRQEVPTCTGPESRREVPMCSDPEPRQEVPMCTGPEARQEVPMYTDSEPRQEVPMYTDSEPRQEVPMYTGSEPRQEVPMYTGPESRQEVPMYTGPESRQEVLIRTDPESRQEIMCTGHESKQEVPICTDPISKQEDSMCTHAEINQKLPVATDFEFKLEALMCTNPEIKQEDPTNVGPEVKQQVTMVSDTEILKVARTHHVQAESYLVYNIMSSGEIECSNTLEDELDQALPSQAFIYRPIRQRVYSLLLEDCQDVTSTCLAVKEWFVYPGNPLRHPDLVRPLQMTIPGGTPSLKILWLNQEPEIQVRRLDTLLACFNLSSSREELQAVESPFQALCCLLIYLFVQVDTLCLEDLHAFIAQALCLQGKSTSQLVNLQPDYINPRAVQLGSLLVRGLTTLVLVNSACGFPWKTSDFMPWNVFDGKLFHQKYLQSEKGYAVEVLLEQNRSRLTKFHNLKAVVCKACMKENRRITGRAHWGSHHAGRWGRQGSSYHRTGSGYSRSSQGQPWRDQGPGSRQYEHDQWRRY
B4: EFEMP2 (protein, UniProt O95967 24-443, looked up)
EGF-containing fibulin-like …: SASPQDSEEPDSYTECTDGYEWDPDSQHCRDVNECLTIPEACKGEMKCINHYGGYLCLPRSAAVINDLHGEGPPPPVPPAQHPNPCPPGYEPDDQDSCVDVDECAQALHDCRPSQDCHNLPGSYQCTCPDGYRKIGPECVDIDECRYRYCQHRCVNLPGSFRCQCEPGFQLGPNNRSCVDVNECDMGAPCEQRCFNSYGTFLCRCHQGYELHRDGFSCSDIDECSYSSYLCQYRCINEPGRFSCHCPQGYQLLATRLCQDIDECESGAHQCSEAQTCVNFHGGYRCVDTNRCVEPYIQVSENRCLCPASNPLCREQPSSIVHRYMTITSERSVPADVFQIQATSVYPGAYNAFQIRAGNSQGDFYIRQINNVSAMLVLARPVTGPREYVLDLEMVTMNSLMSYRASSVLRLTVFVGAYTF
B5: DPF1 (protein, UniProt Q92782 1-387, looked up)
Zinc finger protein neuro-d4: MATVIPGPLSLGEDFYREAIEHCRSYNARLCAERSLRLPFLDSQTGVAQNNCYIWMEKTHRGPGLAPGQIYTYPARCWRKKRRLNILEDPRLRPCEYKIDCEAPLKKEGGLPEGPVLEALLCAETGEKKIELKEEETIMDCQKQQLLEFPHDLEVEDLEDDIPRRKNRAKGKAYGIGGLRKRQDTASLEDRDKPYVCDICGKRYKNRPGLSYHYTHTHLAEEEGEENAERHALPFHRKNNHKQFYKELAWVPEAQRKHTAKKAPDGTVIPNGYCDFCLGGSKKTGCPEDLISCADCGRSGHPSCLQFTVNMTAAVRTYRWQCIECKSCSLCGTSENDDQLLFCDDCDRGYHMYCLSPPMAEPPEGSWSCHLCLRHLKEKASAYITLT
B6: FBLN1 (protein, UniProt P23142 30-703, looked up)
Fibulin-1: DVLLEACCADGHRMATHQKDCSLPYATESKECRMVQEQCCHSQLEELHCATGISLANEQDRCATPHGDNASLEATFVKRCCHCCLLGRAAQAQGQSCEYSLMVGYQCGQVFQACCVKSQETGDLDVGGLQETDKIIEVEEEQEDPYLNDRCRGGGPCKQQCRDTGDEVVCSCFVGYQLLSDGVSCEDVNECITGSHSCRLGESCINTVGSFRCQRDSSCGTGYELTEDNSCKDIDECESGIHNCLPDFICQNTLGSFRCRPKLQCKSGFIQDALGNCIDINECLSISAPCPIGHTCINTEGSYTCQKNVPNCGRGYHLNEEGTRCVDVDECAPPAEPCGKGHRCVNSPGSFRCECKTGYYFDGISRMCVDVNECQRYPGRLCGHKCENTLGSYLCSCSVGFRLSVDGRSCEDINECSSSPCSQECANVYGSYQCYCRRGYQLSDVDGVTCEDIDECALPTGGHICSYRCINIPGSFQCSCPSSGYRLAPNGRNCQDIDECVTGIHNCSINETCFNIQGGFRCLAFECPENYRRSAATLQQEKTDTVRCIKSCRPNDVTCVFDPVHTISHTVISLPTFREFTRPEEIIFLRAITPPHPASQANIIFDITEGNLRDSFDIIKRYMDGMTVGVVRQVRPIVGPFHAVLKLEMNYVVGGVVSHRNVVNVHIFVSEYWF
B7: FES (protein, UniProt P07332 1-822, looked up)
Tyrosine-protein kinase …: MGFSSELCSPQGHGVLQQMQEAELRLLEGMRKWMAQRVKSDREYAGLLHHMSLQDSGGQSRAISPDSPISQSWAEITSQTEGLSRLLRQHAEDLNSGPLSKLSLLIRERQQLRKTYSEQWQQLQQELTKTHSQDIEKLKSQYRALARDSAQAKRKYQEASKDKDRDKAKDKYVRSLWKLFAHHNRYVLGVRAAQLHHQHHHQLLLPGLLRSLQDLHEEMACILKEILQEYLEISSLVQDEVVAIHREMAAAAARIQPEAEYQGFLRQYGSAPDVPPCVTFDESLLEEGEPLEPGELQLNELTVESVQHTLTSVTDELAVATEMVFRRQEMVTQLQQELRNEEENTHPRERVQLLGKRQVLQEALQGLQVALCSQAKLQAQQELLQTKLEHLGPGEPPPVLLLQDDRHSTSSSEQEREGGRTPTLEILKSHISGIFRPKFSLPPPLQLIPEVQKPLHEQLWYHGAIPRAEVAELLVHSGDFLVRESQGKQEYVLSVLWDGLPRHFIIQSLDNLYRLEGEGFPSIPLLIDHLLSTQQPLTKKSGVVLHRAVPKDKWVLNHEDLVLGEQIGRGNFGEVFSGRLRADNTLVAVKSCRETLPPDLKAKFLQEARILKQYSHPNIVRLIGVCTQKQPIYIVMELVQGGDFLTFLRTEGARLRVKTLLQMVGDAAAGMEYLESKCCIHRDLAARNCLVTEKNVLKISDFGMSREEADGVYAASGGLRQVPVKWTAPEALNYGRYSSESDVWSFGILLWETFSLGASPYPNLSNQQTREFVEKGGRLPCPELCPDAVFRLMEQCWAYEPGQRPSFSTIYQELQSIRKRHR

target: T1, HCV ORFs (Gal4-DB fusions) (Hepatitis C virus genotype 1b, UniProt Q9WMX2); test: not given; type: binding, HCV genotype 1b, isolate con1; conditions: HCV protein CORE as bait; human protein as prey
T1 construct: expressed in transfected cells; host or cells: Saccharomyces cerevisiae MAV203 (IMAP1) / AH109 (IMAP2)
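Wherever IMAP Y2H IMAP1 (number of IST) is given: yeast two-hybrid screens using HCV genotype 1b proteins fused to Gal4-DB as baits against prey cDNA libraries from human spleen and foetal brain, IMAP1 via transformation and IMAP2 via mating.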
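Wherever Interaction with viral protein is given: yeast two-hybrid screens using HCV genotype 1b proteins fused to Gal4-DB as baits against prey cDNA libraries from human spleen and foetal brain, IMAP1 via transformation and IMAP2 via mating.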

Question: B1 was tested. Which “IMAP Y2H IMAP1 (number of IST)” value did it give?
Answer: 1

Question: How did the “IMAP Y2H IMAP1 (number of IST)” value turn out when B2 was run?
Answer: 1

same assay, conditions: HCV protein NS2 as bait; human protein as prey

Question: How did the “IMAP Y2H IMAP1 (number of IST)” value turn out when B1 was run?
Answer: 1

same assay, conditions: HCV protein NS3 as bait; human protein as prey

Question: For B3, which “IMAP Y2H IMAP1 (number of IST)” value is on record?
Answer: 1

Question: How did the “IMAP Y2H IMAP1 (number of IST)” value turn out when B1 was run?
Answer: 32

Question: With B4 as the molecule, how does the “IMAP Y2H IMAP1 (number of IST)” value read?
Answer: 3

Question: How did the “IMAP Y2H IMAP1 (number of IST)” value turn out when B5 was run?
Answer: 1

Question: With B6 as the molecule, how does the “IMAP Y2H IMAP1 (number of IST)” value read?
Answer: 8

Question: Which “IMAP Y2H IMAP1 (number of IST)” value does the source give for B2 here?
Answer: 9

Question: For B7, which “IMAP Y2H IMAP1 (number of IST)” value is on record?
Answer: 1

same assay, conditions: HCV protein p7 as bait; human protein as prey

Question: Which “IMAP Y2H IMAP1 (number of IST)” value does the source give for B2 here?
Answer: 1

test system: HCV ORFs (Gal4-DB fusions); test: not given; type: binding, HCV genotype 1b, isolate con1; conditions: human protein listed by gene symbol; the value names the HCV protein it interacts with

Question: B3 was tested. Which “Interaction with viral protein” value did it give?
Answer: NS3

Question: Which “Interaction with viral protein” value does the source give for B1 here?
Answer: CORE and NS3 and NS2

Question: With B4 as the molecule, how does the “Interaction with viral protein” value read?
Answer: NS3

Question: With B5 as the molecule, how does the “Interaction with viral protein” value read?
Answer: NS3

Question: Which “Interaction with viral protein” value does the source give for B6 here?
Answer: NS3

Question: With B2 as the molecule, how does the “Interaction with viral protein” value read?
Answer: CORE and NS3

Question: For B7, which “Interaction with viral protein” value is on record?
Answer: NS3

target: T2, HCV proteins (Hepatitis C virus genotype 1b, UniProt Q9WMX2); test: Validation by Y2H pairwise matrices; type: binding; conditions: interaction with HCV protein p7;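 further: yeast two-hybrid pairwise tests of interactions first found in Y2H screens of HCV bait proteins against human cDNA libraries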
T2 construct: expressed in transfected cells

Question: Which Y2H matrices does the source give for B2 here?
Answer: +

same assay, conditions: validation of interaction with HCV protein CORE

Question: For B1, which Y2H matrices is on record?
Answer: +

Question: For B2, which Y2H matrices is on record?
Answer: +

same assay, conditions: validation of interaction with HCV protein NS2

Question: How did the Y2H matrices turn out when B1 was run?
Answer: +

same assay, conditions: validation of interaction with HCV protein NS3

Question: Which Y2H matrices does the source give for B3 here?
Answer: +

Question: For B1, which Y2H matrices is on record?
Answer: +

Question: B4 was tested. Which Y2H matrices did it give?
Answer: +

Question: For B5, which Y2H matrices is on record?
Answer: +

Question: How did the Y2H matrices turn out when B6 was run?
Answer: +

Question: For B2, which Y2H matrices is on record?
Answer: +

Question: For B7, which Y2H matrices is on record?
Answer: +
